Assay results: patent US20230265151A1, “GIP/GLP1 CO-AGONIST COMPOUNDS” (priority 2020, published 2023)
*1 amine or outer side, *2 acyl side, *3 side chain or, on linkers, in order; H or OH if unused. Where no end group is shown, it is not given here. Side-chain parts run from the residue outwards. [ ]: non-standard residue; d: D form. The star is where a group is joined. Decanoyl(10-(4-HOOC-PhO)) = O=C(O)c1ccc(OCCCCCCCCCC(=O)*)cc1; αMePhe(2-F) = C[C@](N)(Cc1ccccc1F)C(=O)O; γGlu = O=C(O)[C@H](CCC(=O)[*:2])N[*:1]; αMeY = C[C@](N)(Cc1ccc(O)cc1)C(=O)O; αMeL = CC(C)C[C@](C)(N)C(=O)O; Orn = NCCC[C@H](N)C(=O)O; AEEA = NCCOCCOCC(=O)O; Aib = CC(C)(N)C(=O)O

T1: human GIP receptor (human, UniProt P48546 22-466)
T1 sequence (looked up): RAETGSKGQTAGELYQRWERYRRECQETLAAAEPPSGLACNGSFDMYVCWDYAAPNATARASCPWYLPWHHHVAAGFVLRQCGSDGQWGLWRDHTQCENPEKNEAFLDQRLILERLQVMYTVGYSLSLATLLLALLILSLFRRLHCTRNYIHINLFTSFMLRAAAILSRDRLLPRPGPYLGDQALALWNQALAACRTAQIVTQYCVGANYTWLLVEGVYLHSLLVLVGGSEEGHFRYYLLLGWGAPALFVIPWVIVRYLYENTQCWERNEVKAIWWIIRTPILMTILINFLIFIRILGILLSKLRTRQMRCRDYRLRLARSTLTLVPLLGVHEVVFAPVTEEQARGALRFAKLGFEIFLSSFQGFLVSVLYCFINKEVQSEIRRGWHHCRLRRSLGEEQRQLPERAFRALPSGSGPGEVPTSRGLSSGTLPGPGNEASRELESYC


Key:
Test in all cases: cell-based or functional assay
human glucagon receptor = human glucagon receptor (human, UniProt P47871 26-477)
human GLP-1 receptor = human GLP-1 receptor (human, UniProt P43220 24-463)
human GIP receptor = biological target: T1, human GIP receptor

Sequence of human glucagon receptor (P47871 26-477): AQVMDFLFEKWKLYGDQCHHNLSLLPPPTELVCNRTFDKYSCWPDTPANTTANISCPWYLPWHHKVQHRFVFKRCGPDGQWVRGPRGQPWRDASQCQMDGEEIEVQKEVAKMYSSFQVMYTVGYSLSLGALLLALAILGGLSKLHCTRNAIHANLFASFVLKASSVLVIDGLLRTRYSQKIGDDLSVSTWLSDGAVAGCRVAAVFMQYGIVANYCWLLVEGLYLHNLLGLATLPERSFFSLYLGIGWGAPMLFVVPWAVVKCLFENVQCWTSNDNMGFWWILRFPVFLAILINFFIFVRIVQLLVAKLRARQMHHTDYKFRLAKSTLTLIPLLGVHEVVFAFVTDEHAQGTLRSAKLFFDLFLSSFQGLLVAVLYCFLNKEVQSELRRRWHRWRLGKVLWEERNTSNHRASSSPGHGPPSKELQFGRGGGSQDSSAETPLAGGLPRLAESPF

| Binder | cAMP EC50 (1.0% HSA) (human glucagon receptor) [µM] | cAMP EC50 (1.0% HSA) (human GLP-1 receptor) [nM] | cAMP Emax (1.0% HSA) (human GLP-1 receptor) [%] | cAMP EC50 (1.0% HSA) (human GIP receptor) [nM] | cAMP Emax (1.0% HSA) (human GIP receptor) [%] |
| --- | --- | --- | --- | --- | --- |
| Y[Aib]EGT[αMePhe(2-F)]TSDV[Aib]I[αMeL]LD[Orn]QAQ[Aib][Orn]FIK([AEEA-AEEA-γGlu-Decanoyl(10-(4-HOOC-PhO))])[αMeY]LIK([AEEA-AEEA-γGlu-Decanoyl(10-(4-HOOC-PhO))])GGPSSGAPPPS-NH2 [Example 447] | > 9.95 | 7.85 | 98.4 | 1.46 |  |
| YXEGTXTSDXXIXLDXQAQXXFIKXLIKGGPSSGAPPPS (not fully specified; Y-Aib-EGT-αMeF(2F)-TSD-4Pal-Aib-I-αMeL-LD-Orn-QAQ-Aib-Orn-FIK((2-[2-(2-Amino-ethoxy)-ethoxy]-acetyl)-Ahx-(γ-Glu)-CO-(CH2)12-CO2)-αMeY-LIK((2-[2-(2-Amino-ethoxy)-ethoxy]-acetyl)-Ahx-(γ-Glu)-CO-(CH2)12-CO2)GGPSSGAPPPS-NH2) [Example 449] | > 9.95 | 7.27 |  | 0.595 |  |
| YXEGTXTSDXXIXLDXQAQXXFIKXLIKGGPSSGAPPPS (Y-Aib-EGT-αMeF(2F)-TSD-4Pal-Aib-I-αMeL-LD-Orn-QAQ-Aib-Orn-FIK((2-[2-(2-Amino-ethoxy)-ethoxy]-acetyl)2-(γ-Glu)2--(10-(4-carboxyphenoxy)decanoyl))-αMeY-LIK((2-[2-(2-Amino-ethoxy)-ethoxy]-acetyl)2-(γ-Glu)2--(10-(4-carboxyphenoxy)decanoyl))GGPSSGAPPPS-NH2) [Example 475] | > 9.95 | 1.44 |  | 0.211 |  |
| YXEGTXTSDYXIXLDXQAQXXFIKXLIKGGPSSGAPPPS (Y-Aib-EGT-αMeF(2F)-TSDY-Aib-I-αMeL-LD-Orn-QAQ-Aib-Orn-FIK((2-[2-(2-Amino-ethoxy)-ethoxy]-acetyl)2-(γ-Glu)2-CO-(CH2)12-CO2H)-αMeY-LIK((2-[2-(2-Amino-ethoxy)-ethoxy]-acetyl)2-(γ-Glu)2-CO-(CH2)12-CO2H)GGPSSGAPPPS-NH2) [Example 480] | > 9.95 | 2.65 | 104 | 0.29 |  |
| YXEGTXTSDXXIXLDXQAQXXFIKXLIKGGPSSGAPPPS (Y-Aib-EGT-αMeF(2F)-TSD-4Pal-Aib-I-αMeL-LD-Orn-QAQ-Aib-Orn-FIK(PEG5-(γ-Glu)-(10-(4-carboxyphenoxy)decanoyl))-αMeY-LIK(PEG5-(γ-Glu)-(10-(4-carboxyphenoxy)decanoyl))GGPSSGAPPPS-NH2) [Example 469] | > 9.95 | 2.33 |  | 0.203 |  |
| YXEGTXTSDXXIXLDXQAQXXFIKXLIKGGPSSGAPPPS (Y-Aib-EGT-αMeF(2F)-TSD-4Pal-Aib-I-αMeL-LD-Orn-QAQ-Aib-Orn-FIK((2-[2-(2-Amino-ethoxy)-ethoxy]-acetyl)3-(γ-Glu)--(10-(4-carboxyphenoxy)decanoyl))-αMeY-LIK((2-[2-(2-Amino-ethoxy)-ethoxy]-acetyl)3-(γ-Glu)--(10-(4-carboxyphenoxy)decanoyl))GGPSSGAPPPS-NH2) [Example 477] | > 9.95 | 1.56 |  | 0.163 |  |
| YXEGTXTSDXXIXLDXQAQXXFIKXLIKGGPSSGAPPPS (Y-Aib-EGT-αMeF(2F)-TSD-4Pal-Aib-I-αMeL-LD-Orn-QAQ-Aib-Orn-FIK(PEG5-(γ-Glu)-CO-(CH2)12-CO2H)-αMeY-LIK(PEG5-(γ-Glu)-CO-(CH2)12-CO2H)GGPSSGAPPPS-NH2) [Example 467] | > 10.1 | 2.87 |  | 0.35 |  |
| YXEGTXTSDXXIXLDXQAQXXFIKXLIKGGPSSGAPPPS (not fully specified; Y-Aib-EGT-αMeF(2F)-TSD-4Pal-Aib-I-αMeL-LD-Orn-QAQ-Aib-Orn-FIK((2-[2-(2-Amino-ethoxy)-ethoxy]10-(4-carboxyphenoxy)decanoyl))-αMeY-LIK((2-[2-(2-Amino-ethoxy)-ethoxy]-acetyl)-Aoc-(γ-Glu)-(10-(4-carboxyphenoxy)decanoyl))GGPSSGAPPPS-NH2) [Example 454] | > 9.95 | 18.6 |  | 1.3 |  |
| YXEGTXTSDXXIXLDXQAQXXFIKXLIKGGPSSGAPPPS (Y-Aib-EGT-αMeF(2F)-TSD-4Pal-Aib-I-αMeL-LD-Orn-QAQ-Aib-Orn-FIK((2-[2-(2-Amino-ethoxy)-ethoxy]-acetyl)2--Trx-(γ-Glu)-CO-(CH2)12-CO2H)-αMeY-LIK(((2-[2-(2-Amino-ethoxy)-ethoxy]-acetyl)2--Trx(γ-Glu)-CO-(CH2)12-CO2H)GGPSSGAPPPS-NH2)) [Example 470] | > 9.95 | 4.54 |  | 0.719 |  |
| YXEGTXTSDXXIXLDXQAQXXFIKXLIKGGPSSGAPPPS (Y-Aib-EGT-αMeF(2F)-TSD-4Pal-Aib-I-αMeL-LD-Orn-QAQ-Aib-Orn-FIK(PEG3-(γ-Glu)-CO-(CH2)12-CO2H)-αMeY-LIK(PEG3-(γ-Glu)-CO-(CH2)12-CO2H)GGPSSGAPPPS-NH2) [Example 458] | > 9.95 | 7.61 |  | 0.726 |  |
| YXEGTXTSDXXIXLDXQAQXXFIKXLIKGGPSSGAPPPS (Y-Aib-EGT-αMeF(2F)-TSD-4Pal-Aib-I-αMeL-LD-Orn-QAQ-Aib-Orn-FIK(PEG4-(γ-Glu)-CO-(CH2)12-CO2H)-αMeY-LIK(PEG4-(γ-Glu)-CO-(CH2)12-CO2H)GGPSSGAPPPS-NH2) [Example 457] | > 9.95 | 4.69 |  | 0.334 |  |
| YXEGTXTSDYXIXLDXQAQXXFIKXLIKGGPSSGAPPPS (Y-Aib-EGT-αMeF(2F)-TSDY-Aib-I-αMeL-LD-Orn-QAQ-Aib-Orn-FIK((2-[2-(2-Amino-ethoxy)-ethoxy]-acetyl)3-(γ-Glu)-CO-(CH2)12-CO2H)-αMeY-LIK((2-[2-(2-Amino-ethoxy)-ethoxy]-acetyl)3-(γ-Glu)-CO-(CH2)12-CO2H)GGPSSGAPPPS-NH2) [Example 479] | > 9.95 | 2.55 |  | 0.196 | 89.5 |
| YXEGTXTSDXXIXLDXQAQXXFIKXLIKGGPSSGAPPPS (Y-Aib-EGT-αMeF(2F)-TSD-4Pal-Aib-I-αMeL-LD-Orn-QAQ-Aib-Orn-FIK((2-[2-(2-Amino-ethoxy)-ethoxy]-acetyl)-(γ-Glu)-(10-(4-carboxyphenoxy)decanoyl))-αMeY-LIK((2-[2-(2-Amino-ethoxy)-ethoxy]-acetyl)-(γ-Glu)-(10-(4-carboxyphenoxy)decanoyl))GGPSSGAPPPS-NH2) [Example 463] | > 9.95 | 4.09 |  | 0.35 |  |
| YXEGTXTSDXXIXLDXQAQXXFIKXLIKGGPSSGAPPPS (Y-Aib-EGT-αMeF(2F)-TSD-4Pal-Aib-I-αMeL-LD-Orn-QAQ-Aib-Orn-FIK((2-[2-(2-Amino-ethoxy)-ethoxy]-acetyl)3-(γ-Glu)-CO-(CH2)12-CO2H)-αMeY-LIK((2-[2-(2-Amino-ethoxy)-ethoxy]-acetyl)3-(γ-Glu)-CO-(CH2)12-CO2H)GGPSSGAPPPS-NH2) [Example 476] | > 9.95 | 1.5 |  | 0.154 |  |
| YXEGTXTSDXXIXLDXQAQXXFIKXLIKGGPSSGAPPPS (Y-Aib-EGT-αMeF(2F)-TSD-4Pal-Aib-I-αMeL-LD-Orn-QAQ-Aib-Orn-FIK(PEG6-(γ-Glu)-(10-(4-carboxyphenoxy)decanoyl))-αMeY-LIK(PEG6-(γ-Glu)-(10-(4-carboxyphenoxy)decanoyl))GGPSSGAPPPS-NH2) [Example 468] | > 10.1 | 1.84 |  | 0.222 |  |
